According to US5668109A, “Peptides for inhibiting pepsin release” (Societe de Conseils de Recherches et D'Applications …, priority 1994, dated 1997):
Square brackets hold non-standard residues; d marks the D form. Ends that are not written are not given here.

Conditions: in vivo

With “Pro--Val--Thr--Lys--Pro--Gln-D-Ala--NH2 (PVTKPQ[dA]-NH2; N-terminus assumed; SMILES CC(C)[C@H](NC(=O)[C@@H]1CCCN1)C(=O)N[C@H](C(=O)N[C@@H](CCCCN)C(=O)N1CCC[C@H]1C(=O)N[C@@H](CCC(N)=O)C(=O)N[C@H](C)C(N)=O)[C@@H](C)O) [P^D1]” the “quantity found in the organism” value was “greater than 10%”.
